The values below come from KR20170108690A (dated 2017).

The test has as its target T1, BSA (UniProt P02769 25-607).
T1 construct: also called 음성 대조군; 대조군
The test is described as follows: ELISA of clone supernatant on coated antigen. A general note: An ELISA detects its analyte on a solid surface through an enzyme-linked reagent.

T1 sequence (P02769 25-607 limits assumed): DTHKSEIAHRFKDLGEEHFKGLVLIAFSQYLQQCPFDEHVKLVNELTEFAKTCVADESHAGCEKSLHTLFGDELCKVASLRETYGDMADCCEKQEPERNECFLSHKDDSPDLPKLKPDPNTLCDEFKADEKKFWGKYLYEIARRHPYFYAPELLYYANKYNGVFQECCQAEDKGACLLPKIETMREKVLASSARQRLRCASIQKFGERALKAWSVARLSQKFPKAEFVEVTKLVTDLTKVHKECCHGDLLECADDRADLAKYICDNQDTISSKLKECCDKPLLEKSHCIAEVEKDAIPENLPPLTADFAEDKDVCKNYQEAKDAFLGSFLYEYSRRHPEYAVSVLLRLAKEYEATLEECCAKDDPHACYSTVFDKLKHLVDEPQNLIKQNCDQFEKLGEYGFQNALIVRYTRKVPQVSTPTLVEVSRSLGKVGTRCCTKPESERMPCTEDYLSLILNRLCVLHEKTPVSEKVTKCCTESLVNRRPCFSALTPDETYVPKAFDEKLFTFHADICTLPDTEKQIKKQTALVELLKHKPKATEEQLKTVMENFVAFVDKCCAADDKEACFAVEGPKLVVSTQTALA

B1: NA-A4 항체 클론 (Fab 형태, 파지 디스플레이 클론의 IPTG 유도 상층액) (Fab, V domains shown)
VH: EVQLVESGGGLVQPGGSLRLSCAASGFTFNSYWMSWVRQAPGKGLEWVSWITPTSGTTYYADSVKGRFTISRDNSKNTLYLQMNSLRAEDTAVYYCARVEDWDIGYYGMDYWGQGTLVTVSS
VL: DIQMTQSPSSLSASVGDRVTITCRASQSVSNWLAWYQQKPGKAPKLLIYWASSLESGVPSRFSGSGSGTDFTLTISSLQPEDFATYYCQQYYNHPYTFGQGTKVEIK
notes: also called Influenza NA-A4 antibody; 인플루엔자 NA-A4 항체
For the molecule B1, the binding result was “no binding”.
